The nature of the series: soluble on expression in E. coli; label from the status in PepcDB or PDB records.
Take “MHHHHHHSSGVDLGTENLYFQSMCAAQMPPLAHIFRGTFVHSTWTCPMEVLRDHLLGVSDSGKIVFLEEASQQEKLAKEWCFKPCEIRELSHHEFFMPGLVDTHIHASQYSFAGSSIDLPLLEWLTKYTFPAEHRFQNIDFAEEVYTRVVRRTLKNGTTTACYFATIHTDSSLLLADITDKFGQRAFVGKVCMDLNDTFPEYKETTEESIKETERFVSEMLQKNYSRVKPIVTPRFSLSCSETLMGELGNIAKTRDLHIQSHISENRDEVEAVKNLYPSYKNYTSVYDKNNLLTNKTVMAHGCYLSAEELNVFHERGASIAHCPNSNLSLSSGFLNVLEVLKHEVKIGLGTDVAGGYSYSMLDAIRRAVMVSNILLINKVNEKSLTLKEVFRLATLGGSQALGLDGEIGNFEVGKEFDAILINPKASDSPIDLFYGDFFGDISEAVIQKFLYLGDDRNIEEVYVGGKQVVPFSSSV”: the “soluble on expression in E. coli” value was “soluble”. Under “MGSDKIHHHHHHMKEISCGRRTRVSFGKSREPLPIPDLVEIQKSSYRRFLEEGLLEVLKKFSPIYSQATRSDLRKSDRGFALEFVSTRTGEPAIDPLECKAKGLTYSVPIYATARLTDMKSGEMKEEEVFLGYIPYMTDRGTFIINGAERVVVNQIVVSPGLYFSSEYIDREEYGGYFLPSRGAWLEVILDPYDGVLYAGLDGKKVNLFLFLKTIGYEKDEDILSLYPTYLDADDEDSLLLHVGSILLEDIYDGGRKIAEKWDILTKDLAERILMIDDINQIKIVHPIAQNTFEKMLEVVSSSSEEGEEEEEKTKIYGLNEVTVVDAYLEIFRRLRPEELPRINAAKRYLHDLFFNPERYDLSEVGRYKVNERLRNAYIRYLIEVEGEDPEEARKKVYNETSLVLKPLDIVLASRILFDYFERRYVNDFEIDSYELKNLIRIFKEEYLEKRKTAPYDLRKLVSVFRRNYGVTSDLGVFAAIRYVSNINKELPSIPFDTKDHLGNKRVRTVGELVQREFERLFARAQKAIQERLTLINSLSKVSIQSLINIKSIISTVNQFFAMNQLSQFMDQVNPLSELTHKRRVSAVGPGGLRRESKVFEARNVHYSQYGRLCPIETPEGANIGFITSLAIYAKIDEYGFLMTPYRKVVNGKVTDEVVYLRANEEEEYKIIPATTPVDEEGNIIPERVVARMGEDIRLVPKEEVDFMDVSTKQPFSVSASLIPFLEHDDASRALMGSNMQRQAVPLLKTEAPLVGTGMEWEAAKNSGYVILAEHDGIVKEVDAARVVVHRTDENGNLMYDDKGNPVVDEYRLLKFVRSNQDTMINQKPIVNEGDFVKKGDPIADGPATDMGELALGRNILVAFMPWEGYNYEDAILVSQELLEEDVFTSIHIEVYETQARETRLGPEEITADIPNVSKELLKNLDENGIIRVGAYVVSDYGVGSQAILVGKVTPKGEGDTTPEEKIIRSVFGERGRDVKDTSLRLPHGVEGRVIRVDVYDQNDIAELGAGVLKLVRVYVASRKTLDIGDKLAGRHGNKGVVSNILPKEDMPFLPDGTPVQMVLNPLGIPSRMNVGQILETHLGWLAKLTGKWFATPVFEGAKEDEILRPLYEERKKRGLHLGDDENNPNGKVVLRDGRTGEPFDNPVVVGYMYMLKLIHIAKEKIHARSTGPYSLIHQQPLGGKSHFGGQRLGEMEVWALEAYGAAHTLAEMLTIKSDDIKGRNEAYKAILKNMNIPEPGVPESFRVLIKELRGLALDVRLYDENGNEIDIDKY” stands “not soluble”; under “GPGSMVNATPDMARYCCAVIHSKLRGEKTPEPPASITNEPSPIFVSLKTLDGDLRGCIGNFSAEPLHKQLRDYAVAAAFQDNRFPSVTLAELPMLSCSVCLLHSFEKAHRWDDWEIGVHGIRIRYKNYSATYLPSVMPEQRWDHIQAIRSLMRKAGCGEEVSDAILNELDVTRYQESKSTVAFKSANLGSLPC”, “soluble”.

On to “MSLDLRARVREELERLKREGLYISPKVLEAPQEPVTRVEGREVVNLASNNYLGFANHPYLKEKARQYLEKWGAGSGAVRTIAGTFTYHVELEEALARFKGTESALVLQSGFTANQGVLGALLKEGDVVFSDELNHASIIDGLRLTKATRLVFRHADVAHLEELLKAHDTDGLKLIVTDGVFSMDGDIAPLDKIVPLAKKYKAVVYVDDAHGSGVLGEKGKGTVHHFGFHQDPDVVQVATLSKAWAGIGGYAAGARELKDLLINKARPFLFSTSHPPAVVGALLGALELIEKEPERVERLWENTRYFKRELARLGYDTLGSQTPITPVLFGEAPLAFEASRLLLEEGVFAVGIGFPTVPRGKARIRNIVTAAHTKEMLDKALEAYEKVGKRLGIIR”, for which the “soluble on expression in E. coli” value was “soluble”. To “SNRVNDPLIFIRDIKPGLKNLNVVFIVLEIGRVTKTKDGHEVRSCKVADKTGSITISVWDEIGGLIQPGDIIRLTRGYASMWKGCLTLYTGRGGELQKIGEFCMVYSEVPNFSEPNPDYRGQQNKGAQSEQKNNSMNSNMGTGTFGPVGNGVHTGPESREHQFSHAGRSNGRGLINPQLQGTASNQTVMTTISNGRDPRRAFKR” belongs “soluble”. Under “TGKVHWSDELFNIFGRDPQKSAANYEELLNYIHPDDRDFVDGIIRNSFTGKRYGIDYRIIRDNGEERTVHAEKELIFDRN” stands “not soluble”. To “SVMYEEDFVLNSRGMKLFTCVWKPVKQEPKALLFLCHGYAMESSITMNSAATRLANAGFAVYGMDYEGHGKSEGLNGYISNFDDLVDDVSNHYSTICEREENKGKMRFLLGESMGGAVVLLLARKKPDFWDGAVLVAPMCKLADEIKPHPVVISILIKLAKFIPTWKIVPGNDIIDIAIKEPHIRNQVRENKYCYKGRPRLNTAYQLLLVSLDLEKNLHQVSIPFIVLYGEDDKVTDKSISKMLYEVASSSDKTFKLYPKMWHALLYGETNENSEIVFGDIINWLEDRATDSNGGLESQLKHKHDGFLKHK” belongs “soluble”; to “MVNRIQNPILPGFHPDPSIVRVGDDYYIATSTFEWFPGVRIHHSRDLKHWRFVSSPLTRTSQLDMKGNMNSGGIWAPCLSYHDGTFYLIYTDVKQWHGAFKDAHNYLVTAQNIEGPWSDPIYLNSSGFDPSLFHDDDGRKWLVNMIWDYRKGNHPFAGIILQEYSEAEQKLVGPVKNIYKGTDIQLTEGPHLYKKDGYYYLLVAEGGTEYEHAATLARSQSIDGPYETDPSYPLVTSTGQPELALQKAGHGSLVETQNGEWYLAHLCGRPLKGKYCTLGRETAIQKVNWTEDGWLRIEDGGNHPLREVTAPDLPEHPFEKEPELDDFDAPQLHHQWNTLRIPADPSWCSLEERPGHLRLRGMESLTSVHSQSLVARRQQSFHCEVETKLEYQPESFQHMAGLVIYYDTEDHVYLHVTWHEEKGKCLQIIQTKGGNYDELLASPIPLAEEKAVYLKGRIHRETMHLYFKQEGEAEWQPVGPTIDVTHMSDDSAKQVRFTGTFVGMATQDLSGTKKPADFDYFRYKELDQ”, “soluble”. “MCGRFTLTVDLLALQDRFHFRYQGSLTPRFNIAPGQDVLTIVAEGGERVGKMMRWGLVPFWAKDARIGAKMINARAETVDEKASFRHAFKRRRCLILADGFFEWKKEGTKKVPYRFTLKTGEPFAFAGLWERWEGASDPIETCTIMTTKANELIAPIHDRMPVMLPYERHDDWLDPRLDDSEYLKSLLSPYPSGEMRMYEVAPLVNSPKNDVIACIEPVDSRSMEGT”: the “soluble on expression in E. coli” value is given as “not soluble”. With “MSLEVIKHDGPGRLGVIRLEPPVQTPALAGVDFTISPFNSYFNPKEYHDYDFNLAPSIPLSYYTPDEVIEKALKRIETVDYSKFNTFYFPALKRDKYYPRFVELIEENDFDAIYIGNSKVMIKDYRGFVATLRILREKFPNAVLITDLEPFFYPLAVYLGVDAFDVRSLKIYSYEGLGFTPFSPVIWDRPNDPIEFAREMIKIIKIAIQEGKLRYLVENFLPTVMNVGILRIADKEHGDYLEKYTPVHDKTVVFISEHSISRPEVFRWRKRIEERFEPPKGIDLLLIFPCSAKKPYSRSRSHMMYRKVMKEALGEKVHRVHELVVTSPYGVVPREWEWLAKYDIVVTGHWSESEVRFAGELLAQTIEKYPDIPIVAHVEGGYREAVKYAMELVNRDVIFTAVGSSTISKESLDKLKKTLKEFDLRDEGHHHHHH”, the “soluble on expression in E. coli” value is on record as “not soluble”. Under “MGHHHHHHSHMMEGLDDGPDFLSEEDRGLKAINVDLQSDAALQVDISDALSERDKVKFTVHTKSSLPNFKQNEFSVVRQHEEFIWLHDSFVENEDYAGYIIPPAPPRPDFDASREKLQKLGEGEGSMTKEEFTKMKQELEAEYLAIFKKTVAMHEVFLCRVAAHPILRRDLNFHVFLEYNQDLSVRGK” stands “not soluble”; under “GPGSMWAQQLSLQKQTTKISPADKDAQALITANVFIEGNRMRVLKSMEQYQAVADSAYWNYGYMGGSMVTTMAICLSLSGRLPLLQRYASWISLAGGYFGGKAALGIHNARNLSHVVNTIDSAIVETRKMDEQYNFKIPDYAREVEALQRRKFELLPTSAEAIEARKNDLNNMPLDEKVDALVEAYEKRRQAVGKE”, “not soluble”; under “MKFGKTIAVVLASSVLLAGCTTDKKEIKAYLKQVDKIKDDEEPIKTVGKKIAELDEKKKKLTEDVNSKDTAVRGKAVKDLIKNADDRLKEFEKEEDAIKKSEQDFKKAKSHVDNIDNDVKRKEVKQLDDVLKEKYKLHSDYAKAYKKAVNSEKTLFKYLNQNDATQQGVNEKSKAIEQNYKKLKEVSDKYTKVLNKVGKEKQDVDQFK”, “soluble”. Turning to “MSLSPPLTLNPEQAVAVASIFEHIHHYQCFLLQGVTGSGKTEVYLHVIAKILEQGKQVLVLVPEIGLTPQLLSRFTARFNHPITVLHSNLNESERQIAWQLAKENKVKMVIGTRSAVFTPLPNLGLIIIDEEHDSSLKQMEGVRYSARDTALMRAHLANIPIILGTATPSLETIHNCKQKKYNLLRLTHKAASTTPLHYQLIDLRSQMVQHGLALPTLKIIENHLLQQNQVLVFINRRGFAPVLLCHQCGWMVDCKACDSHLTLHKQAGQMICHHCGLTQRIPLFCNNCQSKELIPVGSGTQRIYEFLSHQFPDTNVLRIDRDEVRKKNSLNSHLDKINKGEAQLIIGTQMLAKGHHFPRLSLVVVVDADAGFYNQDFRAIEHLGQLLTQVSGRAGRAEHPGQVLIQTYLPDHPLLNLLIQHGYDEFANALLISRQEAEMPPFQFLAVIRAQGRTVSKVDQFLKATKDQIQAHPLTVLGPAPAPLPRKANQHRMQLLIKSPSRKVLKSSLTQLREWLTMNKLSNGIRWNVDVDPMDLSEGHHHHHH”, the “soluble on expression in E. coli” value was “not soluble”.

Regarding “MPYVDRQNRICGFLDIEDNENSGKFLRRYFILDTQANCLLWYMDNPQNLAVGAGAVGSLQLTYISKVSIATPKQKPKTPFCFVINALSQRYFLQANDQKDLKDWVEALNQASKITVPKAGTVPLATEVLKNLTAPPTLEKKPQVAYKTEIIGGVVVQTPISQNGGDGQEGCEPGTHAFLRRSQSYIPTSGCRPSTGPPLIKSGYCVKQGNVRKSWKRRFFALDDFTICYFKCEQDREPLRTIPLKDVLKTHECLVKSGDLLMRDNLFEIITTSRTFYVQADSPEDMHSWIEGIGAAVQALKCHPREPSFSRSISLTRPGSSTLTSAPNSILSRRRPPAEEKRGLCKAPSVASSWQPWTPVPQAEEKPLSVEHAPEDSLFMPNPGESTATGVLASSRVRHRSEPQHPKEKPFVFNLDDENIRTSDV”, the “soluble on expression in E. coli” value is on record as “soluble”. Under “MKEEKLVTLAIHSYEKAQILKSLLETEGIEAYLHNVNQIQPVISAGVRVRIKETDLPRALSIIEDNKWDQEDPKKRAKNTEEYVLIPVDFSEYTMKICELGFNFAARRGLRVVLMHVYISPFFSTPLTVGDTAVFQLSNEVSLRKEYQRVQR” stands “not soluble”; under “MRMTLAVHTRQYSIHSFNPSAPIPSKVFAEEVYFICKTEEGLTLVVSSELALDSLEQETNWSCLEVLGPLGFSLTGILSKIASTLADVQISIFALSSFDTDYILVKKDCLQNAMTALKKAGYKIIESKLEHHHHHH”, “not soluble”; under “DLHEILHEAVPLDANEREILELKEDAFAQRRREIETRLRAANGKLADAIAKNPAWSPEVEAATQEVERAAGDLQRATLVHVFEMRAGLKPEHRPAYDRVLIDALRRGSQ”, “soluble”.
